According to publication PMC10656236 (The Journal of Biological Chemistry, 2023):

Target: cohesin-NIPBL^c subcomplex containing SMC1, SMC3, RAD21 and NIPBL^c (no SA1) (human, UniProt Q14683;Q9UQE7;O60216;Q6KC79)
Assay: reconstitution by mixing, AFM imaging in air

Chain of cohesin-NIPBL^c subcomplex containing SMC1, SMC3, RAD21 and NIPBL^c (no SA1) (Q14683 whole entry, chain 1 of 4): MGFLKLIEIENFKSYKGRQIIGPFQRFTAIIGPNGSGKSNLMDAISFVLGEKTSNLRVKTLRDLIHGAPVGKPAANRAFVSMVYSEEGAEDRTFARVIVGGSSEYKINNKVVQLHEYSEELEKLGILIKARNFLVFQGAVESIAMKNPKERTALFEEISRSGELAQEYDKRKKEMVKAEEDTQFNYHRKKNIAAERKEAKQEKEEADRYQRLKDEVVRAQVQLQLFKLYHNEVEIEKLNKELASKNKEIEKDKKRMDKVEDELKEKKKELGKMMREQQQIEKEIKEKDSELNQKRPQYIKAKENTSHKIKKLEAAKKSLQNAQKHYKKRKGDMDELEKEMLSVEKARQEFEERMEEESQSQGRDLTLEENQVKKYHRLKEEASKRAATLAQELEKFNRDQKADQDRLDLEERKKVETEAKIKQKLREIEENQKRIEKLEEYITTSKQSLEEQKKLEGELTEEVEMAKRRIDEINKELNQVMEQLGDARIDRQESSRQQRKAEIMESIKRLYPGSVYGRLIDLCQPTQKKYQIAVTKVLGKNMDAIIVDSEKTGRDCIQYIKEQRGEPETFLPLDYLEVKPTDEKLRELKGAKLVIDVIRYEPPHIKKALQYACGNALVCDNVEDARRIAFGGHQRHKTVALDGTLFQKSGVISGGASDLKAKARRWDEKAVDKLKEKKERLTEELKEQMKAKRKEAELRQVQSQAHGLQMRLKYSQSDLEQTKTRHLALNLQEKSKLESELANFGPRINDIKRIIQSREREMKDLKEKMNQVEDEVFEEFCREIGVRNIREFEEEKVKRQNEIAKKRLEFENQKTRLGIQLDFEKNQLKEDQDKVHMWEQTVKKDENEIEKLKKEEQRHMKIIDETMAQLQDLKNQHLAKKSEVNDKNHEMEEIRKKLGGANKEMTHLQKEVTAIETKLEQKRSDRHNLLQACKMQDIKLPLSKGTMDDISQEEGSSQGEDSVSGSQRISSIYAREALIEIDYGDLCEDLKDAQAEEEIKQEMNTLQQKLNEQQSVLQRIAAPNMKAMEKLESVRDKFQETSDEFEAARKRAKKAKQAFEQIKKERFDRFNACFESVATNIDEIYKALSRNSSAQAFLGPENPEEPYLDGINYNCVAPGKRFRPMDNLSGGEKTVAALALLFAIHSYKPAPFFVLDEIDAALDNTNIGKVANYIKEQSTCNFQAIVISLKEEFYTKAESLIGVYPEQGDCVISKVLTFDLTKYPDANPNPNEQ
Chain of cohesin-NIPBL^c subcomplex containing SMC1, SMC3, RAD21 and NIPBL^c (no SA1) (Q9UQE7 whole entry, chain 2 of 4): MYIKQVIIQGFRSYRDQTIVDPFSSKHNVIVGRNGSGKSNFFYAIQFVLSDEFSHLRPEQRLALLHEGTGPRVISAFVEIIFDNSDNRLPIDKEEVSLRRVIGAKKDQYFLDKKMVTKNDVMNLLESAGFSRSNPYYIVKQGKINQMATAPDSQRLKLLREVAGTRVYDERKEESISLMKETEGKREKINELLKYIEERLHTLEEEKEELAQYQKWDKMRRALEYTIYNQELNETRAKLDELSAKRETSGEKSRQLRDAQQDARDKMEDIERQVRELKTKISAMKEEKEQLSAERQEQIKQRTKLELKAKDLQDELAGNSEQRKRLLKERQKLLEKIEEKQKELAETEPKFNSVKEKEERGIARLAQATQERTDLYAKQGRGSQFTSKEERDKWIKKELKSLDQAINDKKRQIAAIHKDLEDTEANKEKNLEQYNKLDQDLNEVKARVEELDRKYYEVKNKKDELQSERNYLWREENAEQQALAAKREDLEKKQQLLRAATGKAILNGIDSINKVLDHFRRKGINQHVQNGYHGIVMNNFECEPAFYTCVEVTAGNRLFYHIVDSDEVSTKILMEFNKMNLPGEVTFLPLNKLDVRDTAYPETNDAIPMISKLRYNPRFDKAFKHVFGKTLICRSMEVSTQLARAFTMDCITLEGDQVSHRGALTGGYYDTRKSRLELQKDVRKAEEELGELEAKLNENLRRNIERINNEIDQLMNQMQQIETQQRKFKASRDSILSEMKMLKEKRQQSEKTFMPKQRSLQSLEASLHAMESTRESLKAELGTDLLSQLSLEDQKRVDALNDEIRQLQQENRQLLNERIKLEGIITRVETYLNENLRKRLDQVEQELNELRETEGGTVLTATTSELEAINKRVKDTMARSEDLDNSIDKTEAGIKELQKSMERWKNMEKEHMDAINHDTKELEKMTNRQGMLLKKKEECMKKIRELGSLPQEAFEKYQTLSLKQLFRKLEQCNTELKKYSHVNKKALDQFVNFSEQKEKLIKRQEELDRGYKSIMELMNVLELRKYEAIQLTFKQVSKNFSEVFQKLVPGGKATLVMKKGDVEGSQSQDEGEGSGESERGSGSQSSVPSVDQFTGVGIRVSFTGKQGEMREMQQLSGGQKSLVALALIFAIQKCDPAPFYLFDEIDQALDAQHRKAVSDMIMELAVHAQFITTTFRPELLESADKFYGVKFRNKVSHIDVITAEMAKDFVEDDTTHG
Chain of cohesin-NIPBL^c subcomplex containing SMC1, SMC3, RAD21 and NIPBL^c (no SA1) (O60216 whole entry, chain 3 of 4): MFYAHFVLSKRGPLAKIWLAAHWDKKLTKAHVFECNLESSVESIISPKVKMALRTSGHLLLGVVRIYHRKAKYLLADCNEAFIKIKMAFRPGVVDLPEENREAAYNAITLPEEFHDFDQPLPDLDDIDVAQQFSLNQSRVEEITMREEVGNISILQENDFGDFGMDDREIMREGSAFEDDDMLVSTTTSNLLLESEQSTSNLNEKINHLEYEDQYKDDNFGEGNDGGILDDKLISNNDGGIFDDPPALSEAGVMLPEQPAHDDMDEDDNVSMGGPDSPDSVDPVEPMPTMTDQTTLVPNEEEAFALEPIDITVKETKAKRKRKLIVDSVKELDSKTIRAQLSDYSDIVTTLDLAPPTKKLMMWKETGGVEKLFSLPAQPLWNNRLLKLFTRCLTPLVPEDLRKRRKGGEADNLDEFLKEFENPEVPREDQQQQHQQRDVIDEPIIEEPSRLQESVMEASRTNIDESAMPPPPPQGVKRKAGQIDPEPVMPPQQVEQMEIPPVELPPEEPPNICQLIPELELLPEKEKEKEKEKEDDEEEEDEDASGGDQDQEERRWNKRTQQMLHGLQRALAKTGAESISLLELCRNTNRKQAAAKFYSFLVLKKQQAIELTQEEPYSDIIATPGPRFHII
Chain of cohesin-NIPBL^c subcomplex containing SMC1, SMC3, RAD21 and NIPBL^c (no SA1) (Q6KC79 1163-2804, chain 4 of 4): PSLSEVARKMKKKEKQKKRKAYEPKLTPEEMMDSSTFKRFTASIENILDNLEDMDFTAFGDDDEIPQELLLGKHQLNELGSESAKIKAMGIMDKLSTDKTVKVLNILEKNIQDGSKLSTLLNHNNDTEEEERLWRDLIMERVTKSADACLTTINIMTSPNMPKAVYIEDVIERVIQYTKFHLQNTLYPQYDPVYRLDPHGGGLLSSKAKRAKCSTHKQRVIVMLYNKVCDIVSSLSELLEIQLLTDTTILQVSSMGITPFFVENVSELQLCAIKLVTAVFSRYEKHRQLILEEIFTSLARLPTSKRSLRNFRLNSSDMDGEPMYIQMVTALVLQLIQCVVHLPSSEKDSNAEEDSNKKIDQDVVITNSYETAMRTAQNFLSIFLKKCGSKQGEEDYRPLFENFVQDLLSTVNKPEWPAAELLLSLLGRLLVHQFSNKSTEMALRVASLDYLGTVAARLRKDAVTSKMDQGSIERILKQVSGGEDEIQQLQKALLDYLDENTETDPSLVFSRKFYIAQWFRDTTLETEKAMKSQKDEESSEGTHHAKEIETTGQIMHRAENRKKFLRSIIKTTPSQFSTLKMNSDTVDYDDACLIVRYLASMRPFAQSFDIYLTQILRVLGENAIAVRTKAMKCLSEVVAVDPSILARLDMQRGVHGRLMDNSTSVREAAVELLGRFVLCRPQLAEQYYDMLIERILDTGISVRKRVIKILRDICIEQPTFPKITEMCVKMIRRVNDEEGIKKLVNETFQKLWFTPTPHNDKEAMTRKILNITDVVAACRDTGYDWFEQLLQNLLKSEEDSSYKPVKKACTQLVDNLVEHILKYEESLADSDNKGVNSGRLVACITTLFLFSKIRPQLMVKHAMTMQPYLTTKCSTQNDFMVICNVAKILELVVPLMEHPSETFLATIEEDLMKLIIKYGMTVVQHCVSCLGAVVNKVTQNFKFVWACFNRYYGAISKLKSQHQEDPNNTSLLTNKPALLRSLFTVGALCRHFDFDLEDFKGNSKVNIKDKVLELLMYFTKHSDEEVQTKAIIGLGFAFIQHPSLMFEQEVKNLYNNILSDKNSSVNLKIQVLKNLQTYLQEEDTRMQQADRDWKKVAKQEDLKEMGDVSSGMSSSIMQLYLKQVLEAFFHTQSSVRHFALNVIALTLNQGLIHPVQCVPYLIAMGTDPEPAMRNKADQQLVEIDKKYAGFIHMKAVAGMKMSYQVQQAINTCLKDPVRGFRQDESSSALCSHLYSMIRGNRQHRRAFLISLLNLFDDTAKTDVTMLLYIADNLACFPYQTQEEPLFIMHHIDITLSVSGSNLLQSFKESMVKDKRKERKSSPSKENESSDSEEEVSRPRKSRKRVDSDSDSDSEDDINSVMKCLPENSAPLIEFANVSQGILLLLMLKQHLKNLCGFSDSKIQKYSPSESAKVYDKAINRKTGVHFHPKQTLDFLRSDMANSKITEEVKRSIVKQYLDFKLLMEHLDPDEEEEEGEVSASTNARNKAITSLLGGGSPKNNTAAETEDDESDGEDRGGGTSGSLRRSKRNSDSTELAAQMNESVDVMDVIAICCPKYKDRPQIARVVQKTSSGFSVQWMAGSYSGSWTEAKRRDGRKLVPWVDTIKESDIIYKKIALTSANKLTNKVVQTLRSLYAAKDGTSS

- binding result: binds
B1: SA1dc (SA1 1-1054 AAs, without its C terminus) (domain or fragment)
chain: MITSELPVLQDSTNETTAHSDAGSELEETEVKGKRKRGRPGRPPSTNKKPRKSPGEKSRIEAGIRGAGRGRANGHPQQNGEGEPVTLFEVVKLGKSAMQSVVDDWIESYKQDRDIALLDLINFFIQCSGCRGTVRIEMFRNMQNAEIIRKMTEEFDEDSGDYPLTMPGPQWKKFRSNFCEFIGVLIRQCQYSIIYDEYMMDTVISLLTGLSDSQVRAFRHTSTLAAMKLMTALVNVALNLSIHQDNTQRQYEAERNKMIGKRANERLELLLQKRKELQENQDEIENMMNSIFKGIFVHRYRDAIAEIRAICIEEIGVWMKMYSDAFLNDSYLKYVGWTLHDRQGEVRLKCLKALQSLYTNRELFPKLELFTNRFKDRIVSMTLDKEYDVAVEAIRLVTLILHGSEEALSNEDCENVYHLVYSAHRPVAVAAGEFLHKKLFSRHDPQAEEALAKRRGRNSPNGNLIRMLVLFFLESELHEHAAYLVDSLWESSQELLKDWECMTELLLEEPVQGEEAMSDRQESALIELMVCTIRQAAEAHPPVGRGTGKRVLTAKERKTQIDDRNKLTEHFIITLPMLLSKYSADAEKVANLLQIPQYFDLEIYSTGRMEKHLDALLKQIKFVVEKHVESDVLEACSKTYSILCSEEYTIQNRVDIARSQLIDEFVDRFNHSVEDLLQEGEEADDDDIYNVLSTLKRLTSFHNAHDLTKWDLFGNCYRLLKTGIEHGAMPEQIVVQALQCSHYSILWQLVKITDGSPSKEDLLVLRKTVKSFLAVCQQCLSNVNTPVKEQAFMLLCDLLMIFSHQLMTGGREGLQPLVFNPDTGLQSELLSFVMDHVFIDQDEENQSMEGDEEDEANKIEALHKRRNLLAAFSKLIIYDIVDMHAAADIFKHYMKYYNDYGDIIKETLSKTRQIDKIQCAKTLILSLQQLFNELVQEQGPNLDRTSAHVSGIKELARRFALTFGLDQIKTREAVATLHKDGIEFAFKYQNQKGQEYPPPNLAFLEVLSEFSSKLLRQDKKTVHSYLEKFLTEQMMERREDVWLPLISYRNSLVT
